B1: Hu38E11-v1 (antibody, human IgG1, V domains shown)
VH: QVQLVQSGAEVKKPGASVKVSCKASGYTFTSYWVDWVRQAPGQGLEWIGNIYPSDSETHYNQKFKDRVTMTVDTSTSTVYMELSSLRSEDTAVYYCARSYGYYGTWFAYWGQGTLVTVSS
VL: DIVMTQSPDSLAVSLGERATINCRASESVDSSGNSFMHWYQQKPGQPPKLLIYRASNLESGIPDRFSGSGSGTDFTLTISSVQAEDVAVYYCQQSNEDPWTFGGGTKLEIK
notes: also called Hu38E11-vl
B2: Hu38E11 (IgG1 N297A) (antibody, name in EU numbering)
heavy: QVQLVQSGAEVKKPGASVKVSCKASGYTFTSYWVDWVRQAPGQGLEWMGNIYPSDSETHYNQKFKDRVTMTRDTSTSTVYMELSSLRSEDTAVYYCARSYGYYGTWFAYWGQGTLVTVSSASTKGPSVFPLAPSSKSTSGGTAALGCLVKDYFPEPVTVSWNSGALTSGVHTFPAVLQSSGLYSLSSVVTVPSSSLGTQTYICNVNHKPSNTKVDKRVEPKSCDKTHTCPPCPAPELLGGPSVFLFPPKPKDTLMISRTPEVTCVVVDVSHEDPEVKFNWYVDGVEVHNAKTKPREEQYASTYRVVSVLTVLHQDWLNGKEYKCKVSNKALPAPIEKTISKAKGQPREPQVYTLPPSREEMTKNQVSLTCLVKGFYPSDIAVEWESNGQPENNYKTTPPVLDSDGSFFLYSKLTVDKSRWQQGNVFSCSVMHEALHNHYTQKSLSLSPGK
VL: DIVMTQSPDSLAVSLGERATINCRASESVDSSGNSFMHWYQQKPGQPPKLLIYRASNLESGVPDRFSGSGSGTDFTLTISSLQAEDVAVYYCQQSNEDPWTFGGGTKLEIK
notes: Hu38E11 variable regions with a human IgG1 constant region carrying N297A; also called Hu38E11 (hIgG1 N297A)
B3: Hu38E11 (IgG2) (antibody)
heavy: QVQLVQSGAEVKKPGASVKVSCKASGYTFTSYWVDWVRQAPGQGLEWMGNIYPSDSETHYNQKFKDRVTMTRDTSTSTVYMELSSLRSEDTAVYYCARSYGYYGTWFAYWGQGTLVTVSSASTKGPSVFPLAPCSRSTSESTAALGCLVKDYFPEPVTVSWNSGALTSGVHTFPAVLQSSGLYSLSSVVTVPSSNFGTQTYTCNVDHKPSNTKVDKTVERKCCVECPPCPAPPVAGPSVFLFPPKPKDTLMISRTPEVTCVVVDVSHEDPEVQFNWYVDGVEVHNAKTKPREEQFNSTFRVVSVLTVVHQDWLNGKEYKCKVSNKGLPAPIEKTISKTKGQPREPQVYTLPPSREEMTKNQVSLTCLVKGFYPSDIAVEWESNGQPENNYKTTPPMLDSDGSFFLYSKLTVDKSRWQQGNVFSCSVMHEALHNHYTQKSLSLSPGK
VL: DIVMTQSPDSLAVSLGERATINCRASESVDSSGNSFMHWYQQKPGQPPKLLIYRASNLESGVPDRFSGSGSGTDFTLTISSLQAEDVAVYYCQQSNEDPWTFGGGTKLEIK
B4: Hu38E11-v2 (antibody, human IgG1, V domains shown)
VH: QVQLVQSGAEVKKPGASVKVSCKASGYTFTSYWVDWVRQAPGQGLEWIGNIYPSDSETHYNQKFKDRVTMTVDTSTSTAYMELSSLRSEDSAVYYCARSYGYYGTWFAYWGQGTLVTVSS
VL: DIVMTQSPDSLAVSLGERATINCRASESVDSSGNSFMHWYQQKPGQPPKLLIYRASNLESGVPDRFSGSGSGTDFTLTISSLQAEDVAVYYCQQSNEDPWTFGGGTKLEIK
B5: Hu38E11-v3 (antibody, human IgG1, V domains shown)
VH: QVQLVQSGAEVKKPGASVKVSCKASGYTFTSYWVDWVRQAPGQGLEWMGNIYPSDSETHYNQKFKDRVTMTRDTSTSTVYMELSSLRSEDTAVYYCARSYGYYGTWFAYWGQGTLVTVSS
VL: DIVMTQSPDSLAVSLGERATINCRASESVDSSGNSFMHWYQQKPGQPPKLLIYRASNLESGIPDRFSGSGSGTDFTLTISSVQAEDVAVYYCQQSNEDPWTFGGGTKLEIK
B6: Hu38E11-v4 (antibody, human IgG1, V domains shown)
VH: QVQLVQSGAEVKKPGASVKVSCKASGYTFTSYWVDWVRQAPGQGLEWIGNIYPSDSETHYNQKFKDRVTMTVDTSTSTAYMELSSLRSEDSAVYYCARSYGYYGTWFAYWGQGTLVTVSS
VL: DIVMTQSPDSLAVSLGERATINCRASESVDSSGNSFMHWYQQKPGQPPKLLIYRASNLESGIPDRFSGSGSGTDFTLTISSLQAEDVAVYYCQQSNEDPWTFGGGTKLEIK
B7: humanized 38E11 antibody Hu38E11 (IgG1) (antibody)
heavy: not shown
VL: DIVMTQSPDSLAVSLGERATINCRASESVDSSGNSFMHWYQQKPGQPPKLLIYRASNLESGVPDRFSGSGSGTDFTLTISSLQAEDVAVYYCQQSNEDPWTFGGGTKLEIK
B8: hybridoma-derived antibody 38E11 (antibody, V domains shown)
VH: QVQLQQPGAELVRPGSSVQLSCKASGYTFTSYWVDWVKQRPGQGLQWIGNIYPSDSETHYNQKFKDKATLTVDKSSSTAYMQLSSLTSEDSAVYYCARSYGYYGTWFAYWGQGTLVTVSA
VL: DIVLTQSPASLAVSLGQRATISCRASESVDSSGNSFMHWYQQKPGQPPKLLIYRASNLESGIPARFSGSGSRTDFTLTINPVEADDVATYYCQQSNEDPWTFGGGTKLEIK
notes: Murine antibody purified from hybridoma supernatant by protein A
B9: 11D4 (antibody, V domains shown)
VH: EVQLVESGGGLVQPGGSLRLSCAASGFTFSSYSMNWVRQAPGKGLEWVSYISSSSSTIDYADSVKGRFTISRDNAKNSLYLQMNSLRDEDTAVYYCARESGWYLFDYWGQGTLVTVSS
VL: DIQMTQSPSSLSASVGDRVTITCRASQGISSWLAWYQQKPEKAPKSLIYAASSLQSGVPSRFSGSGSGTDFTLTISSLQPEDFATYYCQQYNSYPPTFGGGTKVEIKR
B10: OX40mAb24 (antibody, V domains shown)
VH: QVQLQESGPGLVKPSQTLSLTCAVYGGSFSSGYWNWIRKHPGKGLEYIGYISYNGITYHNPSLKSRITINRDTSKNQYSLQLNSVTPEDTAVYYCARYKYDYDGGHAMDYWGQGTLVTVSS
VL: DIQMTQSPSSLSASVGDRVTITCRASQDISNYLNWYQQKPGKAPKLLIYYTSKLHSGVPSRFSGSGSGTDYTLTISSLQPEDFATYYCQQGSALPWTFGQGTKVEIKR

Key:
[1] = target: T1, human OX40 expressed on the cell surface (human, UniProt P43489 29-277); experiment: FACS on activated human T cells
T1 construct: whole, on cells
T1 sequence (looked up): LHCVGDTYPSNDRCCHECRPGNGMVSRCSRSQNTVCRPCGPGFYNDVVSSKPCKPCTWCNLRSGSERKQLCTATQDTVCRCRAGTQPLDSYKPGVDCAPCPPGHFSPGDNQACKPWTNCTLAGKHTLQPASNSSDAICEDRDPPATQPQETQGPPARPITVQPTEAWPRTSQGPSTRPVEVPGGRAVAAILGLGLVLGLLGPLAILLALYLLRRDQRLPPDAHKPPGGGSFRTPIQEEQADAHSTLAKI
Description: (§1) Primary human PBMC were isolated from whole blood obtained from healthy donors through density gradient centrifugation with Ficoll-Paque PLUS (GE Healthcare, Cat 17-1440-02). After centrifuge, the cells in the middle layer were collected and washed 3 times with PBS to obtain PBMC. Then, human T cells were isolated with Pan T Cell Isolation Kit (Miltenyi biotec, Cat 130-096-535) by magnetic beads isolation method according to the protocol recommended by the instructions. T cells were resuspended in RPMI 1640 (containing 10% FBS and penicillin/streptomycin bi-antibiotics) medium, and PHA-L and IL-2 (or Con-A and hIL-2) were added for 2-day stimulation to induce the expression of OX40 from the T cells. The activated T cells were washed once with PBS containing 2% FBS, the serially diluted OX40 antibodies were added, and incubated at 4° C. for 30 minutes. The cells were washed twice with PBS containing 2% FBS, PE-labeled anti-human IgG secondary antibody (Biolegend, Cat 409304) (or PE-labeled anti-mouse IgG secondary antibody (Biolegend, Cat 405307)) and APC-CY7 labeled antibody human CD4 antibody (Biolegend, Cat 300518) were added. The binding of OX40 antibody on the surface of CD4 positive T cells was detected by BD Cantoll flow cytometry. A curve was fitted according to the median fluorescence intensity value, and EC₅₀ was calculated.
According to the detection method described in the preceding Example 1.2, FACS was used to analyze the binding activities of humanized antibodies to OX40 on activated human T cells.

[2] = target: T1, human OX40 expressed on the cell surface; experiment: cell-based or functional assay
[3] = target: T1, human OX40 expressed on the cell surface; experiment: cell-based or functional assay; remark: listed apart in the source
[4] = target: T2, recombinant OX40-Fc protein (R & D, Cat 3388-OX) (human, UniProt P43489 29-214); experiment: blocking ELISA: OX40-Fc coated, antibody titrated, competitor OX40L at 50 ng/ml
T2 construct: extracellular domain; also called OX40 (R & D systems, Cat 3388-OX); not shown: Fc tag
T2 sequence (looked up): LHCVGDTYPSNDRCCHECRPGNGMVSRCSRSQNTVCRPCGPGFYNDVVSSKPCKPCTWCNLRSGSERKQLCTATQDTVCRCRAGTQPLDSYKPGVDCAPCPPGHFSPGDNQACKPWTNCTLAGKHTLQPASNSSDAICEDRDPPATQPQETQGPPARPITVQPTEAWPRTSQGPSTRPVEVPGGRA

[5] = target: T3, recombinant human OX40-His protein (R & D Systems, Cat 9969-OX) (human, UniProt P43489 29-214); experiment: SPR (Biacore), antibody captured on anti-human Fc CM5 chip, human OX40-His as analyte, 1:1 Langmuir
T3 construct: extracellular domain; Bought protein; also called human OX40 protein; human OX40-His fusion protein; not shown: His tag
T3 sequence (looked up): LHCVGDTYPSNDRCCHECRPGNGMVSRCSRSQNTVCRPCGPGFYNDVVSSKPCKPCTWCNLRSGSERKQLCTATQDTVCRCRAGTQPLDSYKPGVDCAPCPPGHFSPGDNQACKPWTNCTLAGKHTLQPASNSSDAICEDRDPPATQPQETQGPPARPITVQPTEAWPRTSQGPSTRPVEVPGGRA
Description: Biacore is used to determine the binding kinetic parameters by measuring surface plasmon resonance (SPR). This technology was used to detect the microscopic rate constants of the binding (kₐ) and dissociation (kd) of an antibody and an antigen. Based on the kₐ and the kd values, the affinity value of the antibody to the antigen is obtained. Both Biacore instrument and reagents were purchased from GE Healthcare. In particular, anti-human Fc antibody was immobilized on a CM5 sensor chip. The supernatants containing expressed antibody or the purified antibodies were diluted in a mobile phase buffer (10 mM HEPES, 150 mM NaCl, 3 mM EDTA, 0.05% Tween-20, pH 7.4), and flowed through the CM5 chip coated with anti-human Fc antibody. Then the serially diluted human OX40-His fusion proteins flowed through the detection chip to measure the binding of the antigen to the antibody, and then the mobile phase buffer flowed through the chip to detect the dissociation of the antigen from the antibody. The binding and dissociation signal data of the antigen and the antibody were collected at different concentrations, and fitted to the 1:1 Langmuir model to calculate the affinity between the antigen and the antibody.

[6] = target: T3, recombinant human OX40-His protein (R & …); experiment: ELISA, human OX40-His coated, anti-mouse IgG-HRP detection
Method: The recombinant human OX40-His (R & D, Cat 9969-OX) was coated onto 96-well plates. After blocking, serially diluted mouse serum or antibodies were added and incubated. After washing plates with PBS containing 0.5% Tween20, HRP-labeled anti-mouse IgG secondary antibody was added for incubation, and the plates were developed with […], and the OD450 value was read via a microplate reader.

[7] = target: T1, human OX40 expressed on the cell surface; experiment: cell-based or functional assay; remark: listed apart in the source
[8] = target: T1, human OX40 expressed on the cell surface; experiment: FACS on activated human CD4+ T cells
Description: as §1

Row | Binder | EC50 [1] | Agonistic activity on T cells, IFNγ release, EC50 [2] | maximum IFNγ concentration [2] | Enhancement of IFNγ production by activated human T cells (ELISA), EC50 [7] | Ratio of IFNγ maximum effect to background (in fold) [7] | EC50 [8] | other results
1 | B1 | 5.03 nM | 0.7 nM | 21600 ng/mL |  |  |  | 
2 | B2 |  |  |  |  |  |  | blocking of OX40L-mediated T cell activation, IFNγ secretion, IC50 [3]: 0.3 nM; inhibition of the expression of luciferase reporter gene under the control of NF-κB, IC50 [3]: 0.2 nM; IC50 [4]: ~0.3 nM
3 | B3 |  |  |  |  |  |  | T-cell agonistic activity, IFNγ released by T cells, EC50 [3]: 1.6 nM
4 | B4 | 3.35 nM | 1 nM | 22500 ng/mL |  |  |  | 
5 | B5 | 3.48 nM | 1.7 nM | 22500 ng/mL |  |  |  | 
6 | B6 | 3.02 nM | 0.9 nM | 21700 ng/mL |  |  |  | 
7 | B7 | 4.56 nM | 2.4 nM | 24800 ng/mL |  |  |  | expression of the luciferase reporter gene under the control of NF-κB, EC50 [3]: 0.7 nM; Kd [5]: 2.36 nM; koff [5]: 0.000394 s⁻¹; kon [5]: 167000 M⁻¹ s⁻¹
8 | B8 |  |  |  | 1.4 nM | 7.6 fold | 0.8 nM | EC50 [6]: 0.276 nM
9 | B9 |  |  |  | 8 nM | 5.6 fold | 0.4 nM | T-cell agonistic activity, IFNγ released by T cells, EC50 [3]: 5.3 nM; Kd [5]: 2.51 nM; koff [5]: 0.000435 s⁻¹; kon [5]: 173000 M⁻¹ s⁻¹
10 | B10 | 6.23 nM | 7.1 nM | 27400 ng/mL | 14.7 nM | 9.4 fold | 1.3 nM | 

From US20230151105A1 (HUTCHISON MEDIPHARMA, published 2023)
